Patent publication US20260176319A1 (KALLYOPE, published 2026)
Starred links: 1 amine or outer side, 2 acyl side, 3 side chain; linkers in the order of their positions; H or OH if unused. Non-standard residues stand in square brackets, D forms with d. Groups on a side chain read outwards from the residue. *: point of attachment. Trp(6-Me) = Cc1ccc2c(C[C@H](N)C(=O)O)c[nH]c2c1; Trp(7-F) = N[C@@H](Cc1c[nH]c2c(F)cccc12)C(=O)O; Trp(7-Me) = Cc1cccc2c(C[C@H](N)C(=O)O)c[nH]c12; d(γGlu) = O=C(O)[C@@H](CCC(=O)[*:2])N[*:1]; C18 diacid = O=C(O)CCCCCCCCCCCCCCCCC(=O)*; Palmitoyl = CCCCCCCCCCCCCCCC(=O)*; 2Pal = N[C@@H](Cc1ccccn1)C(=O)O; 3Pal = N[C@@H](Cc1cccnc1)C(=O)O; 4Pal = N[C@@H](Cc1ccncc1)C(=O)O; Nle = CCCC[C@H](N)C(=O)O; AEEA = NCCOCCOCC(=O)O; Aib = CC(C)(N)C(=O)O; Sar = CNCC(=O)O

B1: Peptide 63 (peptide)
peptide: Palmitoyl-[d(γGlu)][AEEA][AEEA]GNH[Trp(6-Me)]AV[dA]HL[Nle]-NH2
SMILES: CCCCCCCCCCCCCCCC(=O)N[C@H](CCC(=O)NCCOCCOCC(=O)NCCOCCOCC(=O)NCC(=O)N[C@@H](CC(N)=O)C(=O)N[C@@H](Cc1c[nH]cn1)C(=O)N[C@@H](Cc1c[nH]c2cc(C)ccc12)C(=O)N[C@@H](C)C(=O)N[C@H](C(=O)N[C@H](C)C(=O)N[C@@H](Cc1c[nH]cn1)C(=O)N[C@@H](CC(C)C)C(=O)N[C@@H](CCCC)C(N)=O)C(C)C)C(=O)O
B2: Peptide 60 (peptide)
peptide: {C18 diacid}-[d(γGlu)][AEEA][AEEA]GKHWAV[dA]HL[Nle]-NH2
SMILES: CCCC[C@H](NC(=O)[C@H](CC(C)C)NC(=O)[C@H](Cc1c[nH]cn1)NC(=O)[C@@H](C)NC(=O)[C@@H](NC(=O)[C@H](C)NC(=O)[C@H](Cc1c[nH]c2ccccc12)NC(=O)[C@H](Cc1c[nH]cn1)NC(=O)[C@H](CCCCN)NC(=O)CNC(=O)COCCOCCNC(=O)COCCOCCNC(=O)CC[C@@H](NC(=O)CCCCCCCCCCCCCCCCC(=O)O)C(=O)O)C(C)C)C(N)=O
B3: Peptide 58 (peptide)
peptide: Palmitoyl-[d(γGlu)][AEEA][AEEA][AEEA][AEEA]GN[3Pal][Trp(7-Me)]AV[dA]HL[Nle]-NH2
SMILES: CCCCCCCCCCCCCCCC(=O)N[C@H](CCC(=O)NCCOCCOCC(=O)NCCOCCOCC(=O)NCCOCCOCC(=O)NCCOCCOCC(=O)NCC(=O)N[C@@H](CC(N)=O)C(=O)N[C@@H](Cc1cccnc1)C(=O)N[C@@H](Cc1c[nH]c2c(C)cccc12)C(=O)N[C@@H](C)C(=O)N[C@H](C(=O)N[C@H](C)C(=O)N[C@@H](Cc1c[nH]cn1)C(=O)N[C@@H](CC(C)C)C(=O)N[C@@H](CCCC)C(N)=O)C(C)C)C(=O)O
B4: Peptide 52 (peptide)
peptide: Palmitoyl-[d(γGlu)][AEEA][AEEA]GN[4Pal]WAV[dA]HL[Nle]-NH2
SMILES: CCCCCCCCCCCCCCCC(=O)N[C@H](CCC(=O)NCCOCCOCC(=O)NCCOCCOCC(=O)NCC(=O)N[C@@H](CC(N)=O)C(=O)N[C@@H](Cc1ccncc1)C(=O)N[C@@H](Cc1c[nH]c2ccccc12)C(=O)N[C@@H](C)C(=O)N[C@H](C(=O)N[C@H](C)C(=O)N[C@@H](Cc1c[nH]cn1)C(=O)N[C@@H](CC(C)C)C(=O)N[C@@H](CCCC)C(N)=O)C(C)C)C(=O)O
B5: Peptide 56 (peptide)
peptide: Palmitoyl-[d(γGlu)][AEEA][AEEA]GNH[Trp(7-F)]AV[dA]HL[Nle]-NH2
SMILES: CCCCCCCCCCCCCCCC(=O)N[C@H](CCC(=O)NCCOCCOCC(=O)NCCOCCOCC(=O)NCC(=O)N[C@@H](CC(N)=O)C(=O)N[C@@H](Cc1c[nH]cn1)C(=O)N[C@@H](Cc1c[nH]c2c(F)cccc12)C(=O)N[C@@H](C)C(=O)N[C@H](C(=O)N[C@H](C)C(=O)N[C@@H](Cc1c[nH]cn1)C(=O)N[C@@H](CC(C)C)C(=O)N[C@@H](CCCC)C(N)=O)C(C)C)C(=O)O
B6: Peptide 47 (peptide)
peptide: {C18 diacid}-[d(γGlu)][AEEA][AEEA]GNHWAV[dA]HL[Nle][Sar]-NH2
SMILES: CCCC[C@H](NC(=O)[C@H](CC(C)C)NC(=O)[C@H](Cc1c[nH]cn1)NC(=O)[C@@H](C)NC(=O)[C@@H](NC(=O)[C@H](C)NC(=O)[C@H](Cc1c[nH]c2ccccc12)NC(=O)[C@H](Cc1c[nH]cn1)NC(=O)[C@H](CC(N)=O)NC(=O)CNC(=O)COCCOCCNC(=O)COCCOCCNC(=O)CC[C@@H](NC(=O)CCCCCCCCCCCCCCCCC(=O)O)C(=O)O)C(C)C)C(=O)N(C)CC(N)=O
B7: Peptide 54 (peptide)
peptide: Palmitoyl-[d(γGlu)][AEEA][AEEA][AEEA][AEEA]GNHWAV[dA]HL[Nle]-NH2
SMILES: CCCCCCCCCCCCCCCC(=O)N[C@H](CCC(=O)NCCOCCOCC(=O)NCCOCCOCC(=O)NCCOCCOCC(=O)NCCOCCOCC(=O)NCC(=O)N[C@@H](CC(N)=O)C(=O)N[C@@H](Cc1c[nH]cn1)C(=O)N[C@@H](Cc1c[nH]c2ccccc12)C(=O)N[C@@H](C)C(=O)N[C@H](C(=O)N[C@H](C)C(=O)N[C@@H](Cc1c[nH]cn1)C(=O)N[C@@H](CC(C)C)C(=O)N[C@@H](CCCC)C(N)=O)C(C)C)C(=O)O
B8: Peptide 3 (peptide)
peptide: Palmitoyl-[d(γGlu)][AEEA][AEEA]GN[3Pal]WAV[Aib]HL[Nle]-NH2
SMILES: CCCCCCCCCCCCCCCC(=O)N[C@H](CCC(=O)NCCOCCOCC(=O)NCCOCCOCC(=O)NCC(=O)N[C@@H](CC(N)=O)C(=O)N[C@@H](Cc1cccnc1)C(=O)N[C@@H](Cc1c[nH]c2ccccc12)C(=O)N[C@@H](C)C(=O)N[C@H](C(=O)NC(C)(C)C(=O)N[C@@H](Cc1c[nH]cn1)C(=O)N[C@@H](CC(C)C)C(=O)N[C@@H](CCCC)C(N)=O)C(C)C)C(=O)O
B9: Peptide 53 (peptide)
peptide: {C18 diacid}-[d(γGlu)][AEEA][AEEA][AEEA][AEEA]GNHWAV[dA]HL[Nle]-NH2
SMILES: CCCC[C@H](NC(=O)[C@H](CC(C)C)NC(=O)[C@H](Cc1c[nH]cn1)NC(=O)[C@@H](C)NC(=O)[C@@H](NC(=O)[C@H](C)NC(=O)[C@H](Cc1c[nH]c2ccccc12)NC(=O)[C@H](Cc1c[nH]cn1)NC(=O)[C@H](CC(N)=O)NC(=O)CNC(=O)COCCOCCNC(=O)COCCOCCNC(=O)COCCOCCNC(=O)COCCOCCNC(=O)CC[C@@H](NC(=O)CCCCCCCCCCCCCCCCC(=O)O)C(=O)O)C(C)C)C(N)=O
B10: Peptide 2 (peptide)
peptide: Palmitoyl-[d(γGlu)][AEEA][AEEA]GNHWAV[Aib][3Pal]L[Nle]-NH2
SMILES: CCCCCCCCCCCCCCCC(=O)N[C@H](CCC(=O)NCCOCCOCC(=O)NCCOCCOCC(=O)NCC(=O)N[C@@H](CC(N)=O)C(=O)N[C@@H](Cc1c[nH]cn1)C(=O)N[C@@H](Cc1c[nH]c2ccccc12)C(=O)N[C@@H](C)C(=O)N[C@H](C(=O)NC(C)(C)C(=O)N[C@@H](Cc1cccnc1)C(=O)N[C@@H](CC(C)C)C(=O)N[C@@H](CCCC)C(N)=O)C(C)C)C(=O)O
B11: Peptide 59 (peptide)
peptide: Palmitoyl-[d(γGlu)][AEEA][AEEA][AEEA][AEEA]GNH[Trp(7-Me)]AV[dA]HL[Nle]-NH2
SMILES: CCCCCCCCCCCCCCCC(=O)N[C@H](CCC(=O)NCCOCCOCC(=O)NCCOCCOCC(=O)NCCOCCOCC(=O)NCCOCCOCC(=O)NCC(=O)N[C@@H](CC(N)=O)C(=O)N[C@@H](Cc1c[nH]cn1)C(=O)N[C@@H](Cc1c[nH]c2c(C)cccc12)C(=O)N[C@@H](C)C(=O)N[C@H](C(=O)N[C@H](C)C(=O)N[C@@H](Cc1c[nH]cn1)C(=O)N[C@@H](CC(C)C)C(=O)N[C@@H](CCCC)C(N)=O)C(C)C)C(=O)O
B12: Peptide 51 (peptide)
peptide: Palmitoyl-[d(γGlu)][AEEA][AEEA]GN[2Pal]WAV[dA]HL[Nle]-NH2
SMILES: CCCCCCCCCCCCCCCC(=O)N[C@H](CCC(=O)NCCOCCOCC(=O)NCCOCCOCC(=O)NCC(=O)N[C@@H](CC(N)=O)C(=O)N[C@@H](Cc1ccccn1)C(=O)N[C@@H](Cc1c[nH]c2ccccc12)C(=O)N[C@@H](C)C(=O)N[C@H](C(=O)N[C@H](C)C(=O)N[C@@H](Cc1c[nH]cn1)C(=O)N[C@@H](CC(C)C)C(=O)N[C@@H](CCCC)C(N)=O)C(C)C)C(=O)O
B13: Peptide 57 (peptide)
peptide: Palmitoyl-[d(γGlu)][AEEA][AEEA]GK([AEEA-AEEA-d(γGlu)-Palmitoyl])HWAV[dA]HL[Nle]-NH2
SMILES: CCCCCCCCCCCCCCCC(=O)N[C@H](CCC(=O)NCCOCCOCC(=O)NCCOCCOCC(=O)NCCCC[C@H](NC(=O)CNC(=O)COCCOCCNC(=O)COCCOCCNC(=O)CC[C@@H](NC(=O)CCCCCCCCCCCCCCC)C(=O)O)C(=O)N[C@@H](Cc1c[nH]cn1)C(=O)N[C@@H](Cc1c[nH]c2ccccc12)C(=O)N[C@@H](C)C(=O)N[C@H](C(=O)N[C@H](C)C(=O)N[C@@H](Cc1c[nH]cn1)C(=O)N[C@@H](CC(C)C)C(=O)N[C@@H](CCCC)C(N)=O)C(C)C)C(=O)O
B14: Peptide 48 (peptide)
peptide: Palmitoyl-[d(γGlu)][AEEA][AEEA]GNHWAV[dA]HL[Nle][Sar]-NH2
SMILES: CCCCCCCCCCCCCCCC(=O)N[C@H](CCC(=O)NCCOCCOCC(=O)NCCOCCOCC(=O)NCC(=O)N[C@@H](CC(N)=O)C(=O)N[C@@H](Cc1c[nH]cn1)C(=O)N[C@@H](Cc1c[nH]c2ccccc12)C(=O)N[C@@H](C)C(=O)N[C@H](C(=O)N[C@H](C)C(=O)N[C@@H](Cc1c[nH]cn1)C(=O)N[C@@H](CC(C)C)C(=O)N[C@@H](CCCC)C(=O)N(C)CC(N)=O)C(C)C)C(=O)O
B15: Peptide 61 (peptide)
peptide: {C18 diacid}-[d(γGlu)][AEEA][AEEA]GRHWAV[dA]HL[Nle]-NH2
SMILES: CCCC[C@H](NC(=O)[C@H](CC(C)C)NC(=O)[C@H](Cc1c[nH]cn1)NC(=O)[C@@H](C)NC(=O)[C@@H](NC(=O)[C@H](C)NC(=O)[C@H](Cc1c[nH]c2ccccc12)NC(=O)[C@H](Cc1c[nH]cn1)NC(=O)[C@H](CCCNC(=N)N)NC(=O)CNC(=O)COCCOCCNC(=O)COCCOCCNC(=O)CC[C@@H](NC(=O)CCCCCCCCCCCCCCCCC(=O)O)C(=O)O)C(C)C)C(N)=O
B16: Peptide 62 (peptide)
peptide: {C18 diacid}-[d(γGlu)][AEEA][AEEA]GNHWAV[dA]FL[Nle]-NH2
SMILES: CCCC[C@H](NC(=O)[C@H](CC(C)C)NC(=O)[C@H](Cc1ccccc1)NC(=O)[C@@H](C)NC(=O)[C@@H](NC(=O)[C@H](C)NC(=O)[C@H](Cc1c[nH]c2ccccc12)NC(=O)[C@H](Cc1c[nH]cn1)NC(=O)[C@H](CC(N)=O)NC(=O)CNC(=O)COCCOCCNC(=O)COCCOCCNC(=O)CC[C@@H](NC(=O)CCCCCCCCCCCCCCCCC(=O)O)C(=O)O)C(C)C)C(N)=O

These binders were tested against human GRP receptor (human, UniProt P30550 1-384) (assay: cell-based or functional assay).
Chain of human GRP receptor (P30550 whole entry): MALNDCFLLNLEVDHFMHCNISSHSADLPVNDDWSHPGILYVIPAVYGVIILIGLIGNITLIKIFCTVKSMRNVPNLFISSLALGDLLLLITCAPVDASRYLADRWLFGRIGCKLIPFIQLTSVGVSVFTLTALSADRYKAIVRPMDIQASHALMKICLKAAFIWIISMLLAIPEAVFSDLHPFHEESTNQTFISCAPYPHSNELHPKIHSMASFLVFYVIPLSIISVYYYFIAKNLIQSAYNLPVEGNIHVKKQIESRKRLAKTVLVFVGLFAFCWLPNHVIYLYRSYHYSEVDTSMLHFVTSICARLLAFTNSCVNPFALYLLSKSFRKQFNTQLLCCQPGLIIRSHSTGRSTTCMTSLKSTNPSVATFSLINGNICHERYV

hIP1 GRPR EC50	Binder
4.75 nM	B1
7.27 nM	B2
4.22 nM	B3
1.75 nM	B4
1.97 nM	B5
216 nM	B6
3.12 nM	B7
8.7 nM	B8
4040 nM	EXXGNHWAVXHLK (Palmitoyl-D-γGlu-OEG-OEG-Gly-Asn-His-Trp-Ala-Val-D-Ala-His-Leu-Lys(Me)3-NH2) [Peptide 49]
42 nM	B9
822 nM	B10
2.01 nM	B11
0.95 nM	B12
72.8 nM	B13
1.1 nM	B14
8.25 nM	B15
83.7 nM	B16
